This note sets out measurements from patent publication US20230304075, “NUCLEIC ACID-BASED BIOSENSOR AND ASSOCIATED METHODS” (FACible BioDiagnostics LLC, published 2023).

Series [1] deals with SARS-CoV-2 spike S1 protein (SARS-CoV-2, UniProt P0DTC2 P0DTC2:14-685).
The target in series [2] is SARS-CoV-2 spike S2 protein (SARS-CoV-2, UniProt P0DTC2 P0DTC2:686-1213).

B1: Rho91 (DAF1-4560c-17) (ssRNA)
RNA: GGCGAUGCUAGGCUACGACUAGGCCUGAGAAUACUAGUCAAAGACGAUCGCUCGCUUCGGCGAUGAUGGAGAGGCGCAAGGUUAACCGCCUCAGCGUUCAAGCAAAAGAACCCUGUUUGGCUCACCGGGUCCUGCGCAU
Regarding B1, the binding result in series [1] is on record as “no binding”; in series [2], “binds”.

B2: Rho94 (DAF2-30e-17) (ssRNA)
RNA: GGUAGCCCUGCCCGGUGUACCUGAGCCUAGCUCAACGACUCGCUUCGGCGAUGAUGGAGAGGCGCAAGGUUAACCGCCUCAGUCGAAUGGGUACACCUGGCAGUCCGGACAUGCAU
As for B2, the values for the binding result in series [1] and in series [2] were “no binding” and “binds”, respectively.
